We go through one substance from FireProtDB (doi:10.1371/journal.pone.0110439).

For orientation: Tm means the temperature at the midpoint of the melting transition.

The conditions of the series: Homo sapiens, pH 7, transition: 2, structure 1DXX; for ddG of mutation (higher = less stable) / unfolding free energy: Urea; for Tm / change of melting temperature, mutant - wild type (higher = more stable): Thermal.
Where [1] appears, read: 25 °C, Fluorescence, PBS, reversible: yes.
Where [2] appears, read: CD, sodium phosphate 0.1 M, NaCl 0.15 M, reversible: yes.
[3] abbreviates: Fluorescence, sodium phosphate 0.1 M, NaCl 0.15 M, reversible: yes.

As to Dystrophin, P11532 K18N, the “ddG of mutation (higher = less stable)” value was found to be 3.7 kcal/mol under setting [1], 3.7 kcal/mol under setting [2] and 3.7 kcal/mol under setting [3]. For the same substance, the unfolding free energy amounted to 7.5 kcal/mol under setting [1], 7.5 kcal/mol under setting [2] and 7.5 kcal/mol under setting [3]. Further, the Tm is, setting by setting: (CD, PBS, reversible: no) 57.6 °C; under setting [2], 57.6 °C. In addition, the “change of melting temperature, mutant - wild type (higher = more stable)” value runs as follows: (CD, PBS, reversible: no) -3.4 °C; under setting [2], -3.4 °C.
